Laboratory results from paper PMC6358683 (Proceedings of the National Academy of Sciences of the …, 2019).

Experiments:
Assay in all cases: ELISA
[1] = biological target: HA of A/Thailand/CU44/2006 (Influenza A virus A/Thailand/CU44/2006 …, UniProt A7LI25, strain)
HA of A/Japan/305+/1957 = HA of A/Japan/305+/1957 (Influenza A virus A/Japan/305/1957 …, UniProt P03451)
[2] = biological target: HA of A/Solomon Islands/03/2006 (Influenza A virus A/Solomon …, UniProt A7Y8I1, strain)
HA of A/Hong Kong/1/1968 = HA of A/Hong Kong/1/1968 (influenza A virus A/Hong Kong/1/1968 …, UniProt Q91MA7)

Measured: binding result

B1: C05 WT (antibody, V domains shown)
VH: QVQLQESGGGLVQPGESLRLSCVGSGSSFGESTLSYYAVSWVRQAPGKGLEWLSIINAGGGDIDYADSVEGRFTISRDNSKETLYLQMTNLRVEDTGVYYCAKHMSMQQVVSAGWERADLVGDAFDVWGQGTMVTVSS
VL: DIQLTQSPSSLSASVGDRVTLTCQASQDIRKFLNWYQQKPGKGPKLLIYDASNLQRGVPSRFSGGGSGTDFTLIISSLQPEDVGTYYCQQYDGLPFTFGGGTKVVIK
binds: all assays above
